Experimental findings from article PMC7983947, “ADP-Ribosylation Regulates the Signaling Function of IFN-γ” (Frontiers in Immunology, 2021) are described below.

Series [1] addresses T1, recombinant IFNR1-Fc (extracellular domain of interferon receptor 1) (UniProt P15261).
T1 sequence: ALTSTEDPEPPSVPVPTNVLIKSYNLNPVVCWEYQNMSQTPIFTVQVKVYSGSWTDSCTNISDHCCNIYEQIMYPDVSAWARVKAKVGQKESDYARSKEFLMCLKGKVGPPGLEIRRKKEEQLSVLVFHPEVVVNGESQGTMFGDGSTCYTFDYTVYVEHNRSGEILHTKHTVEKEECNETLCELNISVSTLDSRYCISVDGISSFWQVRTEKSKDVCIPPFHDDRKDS

Series [2] deals with the molecule itself. In words: non-reducing SDS-PAGE; murine serum spiked with IFN-γ, incubated with shed ARTC2.2 and 32P-NAD+; gel run under non-reducing conditions, autoradiography.

B1: ADP-ribosylated IFN-γ (ligand)
chain: HGTVIESLESLNNYFNSSGIDVEEKSLFLDIWRNWQKDGDMKILQSQIISFYLRLFEVLKDNQAISNNISVIESHLITTFFSNSKAKKDAFMSIAKFEVNNPQVQRQAFNELIRVVHQLLPESSLRKRKRSRC
modifications: ADP-ribosyl-arginine at R128
Regarding B1, the phosphorylation of STAT1 in primary peritoneal macrophages (flow cytometry, serial titrations); loss of potency against unmodified IFN-γ; restored by de-ADP-ribosylation with ARH1 in series [1] stood at 4 fold.

B2: recombinant murine IFN-γ (ligand, UniProt P01580 23-155, looked up)
chain: B1 chain
notes: interferon gamma, murine, recombinant; also called interferon-gamma; native IFN-γ homodimer; source: bought: Immunotools
Consider B2, for which the binding result in series [2] is “binds”.
